From the DeepSol protein solubility set

experiment: soluble on expression in E. coli; label from the status in PepcDB or PDB records

| Sequence | soluble on expression in E. coli |
| --- | --- |
| MDVIKISPRGYCYGVVDAMVIAKNASLDKSLPRPIYILGMIVHNKHVTDAFEEEGILTLDGSNRLDILKQVDKGTVIFTAHGVSPEVRRIAEEKGLVAIDATCPDVTKTHNLILEMKEKGYHVIYIGKKGHPEPEGAVGVAPEIVHLVETEEDVKNLDIQSEKLIVTNQTTMSQWDVHDIMELVKEKYPHVEYHQEICLATQVRQEAVSEQAKKADLTIVVGDPKSNNSNRLAQVSEEIAGTKAYRIGDLSELKLEWLKGVNTVAVTAGASTPTPITKEVIRFLEQFDHEDPSTWTTEHNIPLKKILPKVKAKN | not soluble |
| MDWFSWLSRTNLEASLIYEYGLSFSNNELEYEDIAYFNHEFLQSMGISIAKHRLEILKLARRDRKPSPLTARSIFRVLIAIKKTGKCFSEHVRAWIRREESSRALVVVSRSTSSSGNGRWKSARKKRLVMPSNGNGVKEERLLLTNGTPCRLDSFSNPKVSSGYEDDDNHWGNKDVEEKIKWDSMFQNLKPT | soluble |
| MDWRHEAVCRDEDPELFFPVGNSGPALAQVAAAKVVCNRCPVTSQCLAWALETGQDAGVWGGMSEDERRALKRRKNRGRGRARATA | not soluble |
| MDWRHKAVCRDEDPELFFPVGNSGPALAQIADAKLVCNRCPVTTECLSWALNTGQDSGVWGGMSEDERRALKRRNARTKARTGV | not soluble |
| MDYHIQEEKILEVLKENVYGLRGSIAFSGGLDSSLLYVISDRNLVPYTVGYSFSHDVNRAKFVLSLLNGSGKYVTLDEINIENYVKYLKSEYPDINKVEISFELVLEILLENVDSDLLVTGQGADELFFGYKRSVNEMDNSLQMERLLKRTIPREKDMAKRQGKELVTPFLDDRILKLASEISPAYHCLYGGKKALREIAKIAGLPEEVYGYRKKAAQYGSGIDKALKSVSYFGLF | not soluble |
| MDYQERLKNLPPEVMTAFSESFIFLISNDKVQHFPARDLTQAEMIQRVKEKLGEAVTWSLWQGFVIAVNSEETCVAVLPKYYQLDGFENE | not soluble |
| MEAIKDKERKERRDKKLAIANLAAKQKREKKKQQKNGAELAARARKAKAEKAKTSEPPAQGVVTRAAAQKAREAAQAANHQ | not soluble |
| MEALDLLLNRRSIAKLDAPAPQNEALDNILRAGLRAPDHGALTPWRFVVAQGEGLAKLAAILEQAEIANGSDEAVISKAKNAPFRAPMVITVIAKVTHSEKIPAFEQHLSAGCAVQAMQMAAIAQGFQGIWRSGSWMFHPVVRRAFNVQGEDHIVGFLYLGTPGTTAAKVPERELSKYVEYL | not soluble |
| MEANILSTHKSKILVFKGWSERQKSVVFIPIEAVLEGHNIEVQFFEKPNEPVTFQVKDKNGNIVFQDMTTPDNLEIYQIDVSGFKTGQYELLYIEKDVTLIGEFEIE | not soluble |
| MEASKYVGQGFQPPAEKDAVEFAKKHKDKIAKRGEQFFMDNFGLKVKATNVVGSGDGVEVFVHCDDHDIVFNASIPFDKSIIDSDSSLRSEDKGDDMSTLVGTVLSGFEYRAQKEKYDNLYKFFKENEKKYQYTGFTKEAINKTQNSGYENEYFYIVANIPTLQEYRKYYEPLIKKNNLNFKKGMKQARKGVGYKAAIEVHTTLFSRSSNFSKDKKLDDVIDLSESTKKLHLNFENTKIFLQLAKSTISTNRVNYSDNESIRIEVELEHHHHHH | not soluble |
| MEATQQAERKSMNKSQAFANASHDIRGALAGMKGLIDICRDGVKPGSDVDTTLNQVNVCAKDLVALLNSVLDMSKIESGKMQLVEEDFNLSKLLEDVIDFYHPVAMKKGVDVVLDPHDGSVFKFSNVRGDSGRLKQILNNLVSNAVKFTVDGHIAVRAWAQRPGSNSSVVLASYPKGVSKFVKSMFCKNKEESSTYETEISNSIRNNANTMEFVFEVDDTGKGIPMEMRKSVFENYVQVRETAQGHQGTGLGLGIVQSLVRLMGGEIRITDKAMGEKGTCFQFNVLLTTLESPPVSDMK | not soluble |
| MEAVLYVSHGSRIAAARHEAARFVEQCRRAIDIPIQELCFVELAEPDIVTGVDRCVAQGATRVIVVPLLLLSAGHAKHDIPAALDIARRRHPSVDILCGAPFGVHEAMIDIMIDRISEQSAPLDGESMILLVGRGSSDPDTKRDMSAIAALLKEKTNVPHVDVCFLAAIRPTLDEGLERAHASAYRRVFVVPYLLFTGVLMKTIERRLQGFSVSDKQWHLCSYLGDHPRLVLLIQQQVLSLSSVKKGA | soluble |
| MEDEDVPVCWICNEELGNERFRACGCTGELENVHRSCLSTWLTISRNTACQICGVVYNTR | soluble |
| MEDIGADSDDFFSLAEELPQNEDLLESEDDAPIIKLINAMLGEAIKEGASDIHIETFEKTLSIRFRVDGVLREVLAPSRKLSSLLVSRVKVMAKLDIAEKRVPQDGRISLRIGGRAVDVRVSTMPSSHGERVVMRLLDKNATRLDLHSLGMTAHNHDNFRRLIKRPHGIILVTGPTGSGKSTTLYAGLQELNSSERNILTVEDPIEFDIDGIGQTQVNPRVDMTFARGLRAILRQDPDVVMVGEIRDLETAQIAVQASLTGHLVMSTLHTNTAVGAVTRLRDMGIEPFLISSSLLGVLAQRLVRTLCPDCKEPYEADKEQRKLFDSKKKEPLILYRATGCPKCNHKGYRGRTGIHELLLVDDALQELIHSEAGEQAMEKHIRATTPSIRDDGLDKVRQGITSLEEVMRGSRSHHHHHH | soluble |
| MEDSCVLRGVMINKDVTHPRMRRYIKNPRIVLLDSSLEYKKGESQTDIEITREEDFTRILQMEEEYIHQLCEDIIQLKPDVVITEKGISDLAQHYLMRANVTAIRRVRKTDNNRIARACGARIVSRPEELREDDVGTGAGLLEIKKIGDEYFTFITDCKDPKACTILLRGASHHHHHH | soluble |
| MEDVFKGIEKEIIKIYKIPERKGRFSNFKFKNKEINELIDALGFKLYLHQVKALKYLYNKKDVVVTTSTASGKSEIFRLAIFDNFLSNPDDRYLLIYPTRALINNQYEKFSMENELFYKITNKRVKAEILTGDVGLEKRREILKDKPNVLFTTPDMLHYQILKNHNNYLWLLKNLKLLVVDELHVYRGVFGTNMVYVFKRLLKLLKRLNNNLQILCLSATLKNPKEFVKLLFNRDFEVVD | not soluble |
| MEEALKENIMGALEQVVDPELGVDIVNLGLVYDVDMDEDGLTHITMTLTSMGCPLAPIIVDEVKKALADLPEVKDTEVHIVWNPPWTRDKMSRYAKIALGIQLEHHHHHH | not soluble |
| MEEAVSPLGLDVLEVHFARGELLVRLERKDERPITVADLEEASRHIEAALDREDPIPGSYRLLVESPGPKRPLFTRRHFERFQGLKAKVPGPEGFTGRILRVEGEEVVFQVGDEERRLRIGTFRANLAEWPEEPR | soluble |
| MEEDIVRLFYKGSEIILIGTSHISAESADLVRKTIQEENPDTICIEWDQKRYKKNIHPDEWDDTDIVKIIKNKQFPVFIFGVIYKLFQKKVSQDMNSLVGKEFVVAVDESKKLNIKFYLIDRDSSLTFKRAWRMLNFREKVKLPYAFGKIFEGAEETEEEVQNLLESENFEPVFEELKESYPNLWEVFVTERDDYLATKIQNTANGKTVAVLGKAHLKGVSDRLKNNQKSDLQKLEIIPPKK | not soluble |
| MEEDNQSPSPSESSIKTDYDAKIRVLYSTKNNKSEEESVFAHRLVLSTFSPLFQQLLQDATSSSTSTTSSTSSDDVISISLDLTAFPNALAAFKVILEALYTGDIKMKSVAANEVLAVSRHCQISSLEPKIMSAVAPLPLNLANILNCSQSVPLNSNPFLQYTSPPIQNYLSSMISLWSNPFFSALFGNTTGTPSLPFSPQSDTENSRTQSEGSSPRANSTSTPPTTDLEKIVPNDDKEGWCRNKKYIEKVDGGFMCTVCRKIYGRYNSVSYHVTIYHRNPPIKCEENGCNFSTREARYIHFHKYYRHHIPLPENIDLGSRKCPFCRHVSKSPAMLEKHIARHETDGTSGGTPGALKRAQSKKKIVPTMTTDVIDPNVSSIFAPTNPAGNIPIQCSLCPFSTHSTDLLFIHLAMQHAQELAQCSGLLADNSSETSTSSSSDGEPMITDIDLDVKPLIDQSLMLHLNTPLSN | not soluble |
| MEEETIKVENLDDSITIDRNPVPLAFCARPTLPAKIGMKTEDGIVDQLLDLVDPITVVNPTEIRQAPSLKSFGCDTESEFEFSGDDSDFENINDLRAGALDSDEEFDRLVKFSAKIIEKTHKSEYPDENGKKQRKPKKSQKTRNVHEYDDMPPLENLSIECKGQLLEFGFVSKVVDCQVVIISTCTEVLDFDSFLFDQKGNALGQIYDIFGQVKNPQYVIRFNSCEEASMIPIDMKVYYAPTEEQFSKTPFKGLNLAAANRDAIKSLNRRIDHQEAVAKAGETMAQVGIGSDVEFSDDEAEKEFKRTTYTQPASQMSRGFDSNRGRKRDRRGGQKVRFSAQNPPARSDNLGPIPQQPSAPPPPARPAQSTESNPYAEFGCHSGFNGRFGI | not soluble |
| MEELFCIGCGAQIQTEDKEKAGFTPASSIKKAEETGELYCQRCFRLRHYNEIVDVHITDDEFLKLLYEVGDSDALVVNVVDIFDFNGSIIPGLSRFVSGNDVLLVGNKKDILPKSVKDGKVTQWLTERAHEEGMRPVDVMLTSAQNHHAIKELIQRIEALRKGRDVYVVGVTNVGKSTLINAIIKEITGDKDVITTSRFPGTTLDKIEIPLDDGSYIFDTPGIIHRHQMAHYLSAKDLKYVSPKKEIKPKTYQLNAGQTLFLGGLGRFDFIDGDKQGFTAFFDNNLKLHRTKLDGADAFYDKHVGSLLMPPGPKELADFPKLVRHEFTIKDKTDVVFSGLGWIRVQGKTDQPTIVAAWAPEGVGVVVRKAIILEHHHHHH | soluble |
| MEENSKLGLIDVFTGDGKGKTTAAFGLAFRALGWGYRVYILQFMKTGVYGENKSAIMFDRNLKVDFVGMPYFIAWENEIPKEDLDKVKNVVICKKGHPPDDYRRAVKERFDRSLEELKSGKWDMFIYDEINVALYYYLLSMEEVMEIFKAKPDHTELVFTGRKMPKEIMERADLITEVSSPRHPYQRGILARRGVDF | not soluble |
| MEEPFEAYRSREVAMKLVEKIREEAKTLDGEIRIMHVCGTHEDTVTRHGIRSLLPENVKVVSGPGCPVCITPVEDIVAMQLIMRKAREEGEEIILTTFGDMYKIPTPMGSFADLKSEGFDVRIVYGIFDTYRIAKENPDKTVVHFSPGFETTTAPAAGMLNVAAQEELENFKIYSVHRLTPPAVEVLLKQGTVFQGLIAPGHVSTIIGVKGWEYLTEKYGIPQVVAGFEPNDVLMAILMLIRMYKEGEARIINEYERAVKYEGNVVAQKMIDKFFEVVDAKWRALGVFPKSGLELRKEWKDFEIRSFYKVEVPKNLPDLEKGCRCGAVLRGLALPTDCPLFGKTCTPRHPVGPCMVSYEGTCQIFYKYGVLF | soluble |
| MEERILDRLAALDPDLMAYIRDFAYDTVYERPGLDLKTKELLASVLLVSLGSPDELKTHLRGALRAGATEQEVREALLLCVPYLGFPRTVAAFSQLQS | soluble |
| MEETEFVPHKLTELRVGTLYGPQIYMTSGQGNSGFDYDMAVLFAEYLDVPLKMVPYTNLAELYDALKKNEIDIIAAGMTETPARREHFRLGPPLYRVNQVLVYREGMPAPKDISDLKGKITVIADSSFVETLTQLQKRHPTLVWDQVTDKDNEELLTMIANKEIDYTIADSSSVQINRRYLPVLRSGLVLEEKLNVVWLLPPTHSDGLMSQLLAFWHQEKLAGTLDHLNEKYFGHVKRFDYIDTRAFLRAIETVLPRYRQHFETHAGDLDWRKLAATSYQESHWNPNARSPTGVRGMMMLTQPTAKEIGITNRLDAEESIRGGAAYLRDMINRLPESIPESQRMWFALASYNIGYAHVEDARKLAESMELNPNAWQDLKKVLPLLQKRKYYQKTRYGYARGSEAVHYVDSIRRYYDTLVWVDNQSKQQNSEEVAPSDLTAEETPVPAPGTLSPDKPKLEHHHHHH | soluble |
